Test results published in patent US20220289837A1 (VIB VZW, published 2022).

Columns and labels:
[1] = target: T1, 2PT-NBD1 (human CFTR nucleotide-binding domain 1, residues 387-646, with S492P, A534P, I539T) (human, UniProt P13569 388-646, biotinylated for the ELISA (sites not given)); assay: ITC, nanobody titrated into 2PT-NBD1 at 20 °C, one-site model
T1 construct: N-terminal His6-SUMO tag removed with Ulp1; In the T2a-T4 and T27 crystals the domain was cut by papain or subtilisin
Description: (§1) Isothermal titration calorimetry (ITC) was used to characterize the thermodynamic parameters of the binding (FIG. 1e and FIG. 9). […] These KD values are similar to those measured for other in vivo matured camelid heavy-chain antibodies interacting with their ligands^{[20]}. The thermodynamic parameters of the interaction of nanobodies with 2PT-NBD1 were determined based on these ITC measurements (FIG. 1e and FIG. 9).
(§2) Interactions between nanobodies and 2PT-NBD1 was carried out on NanoITC system (TA Instruments) in 0.165 ml cells at 20° C., 300 rpm syringe stirring. Proteins were extensively dialyzed in 20 mM Hepes buffer pH 7.5, 150 mM NaCl, 10% (w/v) glycerol, 10% (w/v) ethylene glycol, 2 mM ATP and 3 mM MgCl₂ for 16 h at 4° C. Heat of dilution from control experiments of each nanobody titrated into buffer was subtracted from the titration into 2PT-NBD1. Data were integrated analyzed with Origin 7.0 software (Origin Lab Corp.).

[2] = target: T1, 2PT-NBD1 (human CFTR nucleotide-binding …); assay: isothermal titration calorimetry, nanobody titrated into 2PT-NBD1 at 20 °C, one-site model
Description: as §1, §2

[3] = target: T1, 2PT-NBD1 (human CFTR nucleotide-binding …); assay: ELISA, biotinylated 2PT-NBD1 on avidin-coated plate, T8 titrated, anti-His detection
Description: (§3) (a) Nanobody binding to 2PT-NBD1 measured by ELISA. Biotinylated 2PT-NBD1 was immobilized on avidin-coated plates and incubated with increasing concentration of each nanobody. Binding of nanobody was followed by immunodetection of the His-tag (see Methods). Representative curve of 3 independent experiments is shown. Error bars represent the standard deviation (SD) of duplicates. Data were normalized to maximum signal for each nanobody separately. (b) Nanobody binding to F508del-2PT-NBD1 measured by ELISA as described in panel a. (c) Nanobody T4 binding to 2PT-NBD1 and F508del-2PT-NBD1. Data were normalized to maximum signal of T4 binding to 2PT-NBD1. (d) Nanobody T8 binding to 2PT-NBD1 and F508del-2PT-NBD1. Data were normalized to maximum signal of T8 binding to 2PT-NBD1.
(§4) For dose-response assays, Nunc MaxiSorp 96-well plates (ThermoScientific), were coated with 5 μg/ml NeutrAvidin Biotin-Binding protein (ThermoScientific) overnight at 4° C. and blocked 2 h at room temperature (RT) with 2% milk in phosphate-buffered saline (PBS). […] 50 μl of 1-Step UltraTMB-ELISA (ThermoScientific) was used as a substrate for the peroxidase and intensity of the reaction was proportional to absorbance measured at 450 nm with SynergyMx (BioTek) after addition of 50 μl H₂SO₄ at 1M.

[4] = target: T1, 2PT-NBD1 (human CFTR nucleotide-binding …); assay: ELISA, biotinylated 2PT-NBD1 on avidin-coated plate, nanobody titrated, anti-His detection; column head 'pEC50 (M)'
Description: as §3
(§5) For dose-response assays, Nunc MaxiSorp 96-well plates (ThermoScientific), were coated with 5 μg/ml NeutrAvidin Biotin-Binding protein (ThermoScientific) overnight at 4° C. and blocked 2 h at room temperature (RT) with 2% milk in phosphate-buffered saline (PBS). Each new reagent addition was preceded by three washes with 200 μl of NBD1 buffer (20 mM HEPES pH 7.5, 150 mM NaCl, and 10% (w/v) glycerol, 10% (w/v) ethylene glycol, 2 mM ATP, 3 mM MgCl₂). Then, biotinylated purified NBD1 proteins at 5 μg/ml were immobilized 30 min at RT followed by 1 h RT incubation with 100 μl various concentrations (0-20 μg/ml) of purified nanobodies. Signal detection was followed using His-tag specific antibody (Invitrogen, catalogue number: MA1-135, 1:3000 dilution) to detect the nanobodies and secondary antibody anti-mouse coupled to horse radish peroxidase (HRP) (Millipore, catalogue number: AP308P, 1:5000 dilution). 50 μl of 1-Step UltraTMB-ELISA (ThermoScientific) was used as a substrate for the peroxidase and intensity of the reaction was proportional to absorbance measured at 450 nm with SynergyMx (BioTek) after addition of 50 μl H₂SO₄ at 1M.

[5] = target: T2, F508del-2PT-NBD1 (human, UniProt P13569 388-646, biotinylated for the ELISA (sites not given)); assay: ELISA, biotinylated F508del-2PT-NBD1 on avidin-coated plate, T8 titrated, anti-His detection; normalised to the maximum of T8 on 2PT-NBD1
T2 construct: also called F508del-2PT-NBD1 mutant
Description: as §3, §4

[6] = target: T3, Stabilized human CFTR (stab-CFTR: 2PT/ΔRI/R1048A_1172X) (human, UniProt P13569 1-1171, limits assumed); assay: cell-based or functional assay
[7] = target: T3, Stabilized human CFTR (stab-CFTR: …); assay: cell-based or functional assay; remark: listed apart in the source
[8] = target: T1, 2PT-NBD1 (human CFTR nucleotide-binding …); assay: ELISA, biotinylated 2PT-NBD1 on avidin-coated plate, T2a titrated
Excerpt: (§6) The location of these nanobodies completely overlaps (FIG. 11a) with that of the C-terminal regulatory extension (RE) observed in previously published structures of NBD1^{[25,26].} The RE segment, comprising residues 654-673 was removed from the 2PT-NBD1 construct used for immunization and characterization. While the functional role of the RE is still unclear, it has been described to be a very mobile domain^{[27]}. […] This is consistent with RE being a dynamic region of CFTR.
as §5, with “Signal detection was followed using His-tag specific antibody (Invitrogen, catalogue number: MA1-135, 1:3000 dilution) to detect the nanobodies and secondary antibody anti-mouse coupled to horse radish peroxidase (HRP) (Millipore, catalogue number: AP308P, 1:5000 dilution).” left out

[9] = target: 2PT-NBD1-RE (2PT-NBD1 with residues 387-678, containing the regulatory extension) (human, UniProt P13569 387-678, biotinylated for the ELISA (sites not given)); assay: ELISA, biotinylated 2PT-NBD1-RE on avidin-coated plate, T2a titrated
Excerpt: as §6
as §5, with “Signal detection was followed using His-tag specific antibody (Invitrogen, catalogue number: MA1-135, 1:3000 dilution) to detect the nanobodies and secondary antibody anti-mouse coupled to horse radish peroxidase (HRP) (Millipore, catalogue number: AP308P, 1:5000 dilution).” left out

[10] = target: T2, F508del-2PT-NBD1; assay: ELISA, biotinylated F508del-2PT-NBD1 on avidin-coated plate, nanobody titrated, anti-His detection
Description: as §3, §5

T1 sequence (P13569 388-646 V470M/S492P/A534P/I539T limits assumed): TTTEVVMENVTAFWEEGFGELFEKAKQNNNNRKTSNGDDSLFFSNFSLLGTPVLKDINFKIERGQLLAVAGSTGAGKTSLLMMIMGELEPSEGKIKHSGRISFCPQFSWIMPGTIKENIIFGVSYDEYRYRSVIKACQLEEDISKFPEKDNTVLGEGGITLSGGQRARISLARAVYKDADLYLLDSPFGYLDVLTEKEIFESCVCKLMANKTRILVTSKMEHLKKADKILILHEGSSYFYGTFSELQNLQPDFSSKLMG
T2 sequence (P13569 other isoform, or with tags, fused parts or gaps limits assumed, stated change not applied): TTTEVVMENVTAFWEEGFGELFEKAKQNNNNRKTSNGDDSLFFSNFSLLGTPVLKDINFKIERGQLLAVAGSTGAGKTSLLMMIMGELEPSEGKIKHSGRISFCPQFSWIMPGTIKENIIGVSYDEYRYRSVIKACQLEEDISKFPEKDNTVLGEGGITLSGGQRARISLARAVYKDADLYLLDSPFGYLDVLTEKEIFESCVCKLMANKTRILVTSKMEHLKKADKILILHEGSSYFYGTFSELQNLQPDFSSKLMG
T3 sequence (P13569 other isoform, or with tags, fused parts or gaps R1048A R1048A limits assumed): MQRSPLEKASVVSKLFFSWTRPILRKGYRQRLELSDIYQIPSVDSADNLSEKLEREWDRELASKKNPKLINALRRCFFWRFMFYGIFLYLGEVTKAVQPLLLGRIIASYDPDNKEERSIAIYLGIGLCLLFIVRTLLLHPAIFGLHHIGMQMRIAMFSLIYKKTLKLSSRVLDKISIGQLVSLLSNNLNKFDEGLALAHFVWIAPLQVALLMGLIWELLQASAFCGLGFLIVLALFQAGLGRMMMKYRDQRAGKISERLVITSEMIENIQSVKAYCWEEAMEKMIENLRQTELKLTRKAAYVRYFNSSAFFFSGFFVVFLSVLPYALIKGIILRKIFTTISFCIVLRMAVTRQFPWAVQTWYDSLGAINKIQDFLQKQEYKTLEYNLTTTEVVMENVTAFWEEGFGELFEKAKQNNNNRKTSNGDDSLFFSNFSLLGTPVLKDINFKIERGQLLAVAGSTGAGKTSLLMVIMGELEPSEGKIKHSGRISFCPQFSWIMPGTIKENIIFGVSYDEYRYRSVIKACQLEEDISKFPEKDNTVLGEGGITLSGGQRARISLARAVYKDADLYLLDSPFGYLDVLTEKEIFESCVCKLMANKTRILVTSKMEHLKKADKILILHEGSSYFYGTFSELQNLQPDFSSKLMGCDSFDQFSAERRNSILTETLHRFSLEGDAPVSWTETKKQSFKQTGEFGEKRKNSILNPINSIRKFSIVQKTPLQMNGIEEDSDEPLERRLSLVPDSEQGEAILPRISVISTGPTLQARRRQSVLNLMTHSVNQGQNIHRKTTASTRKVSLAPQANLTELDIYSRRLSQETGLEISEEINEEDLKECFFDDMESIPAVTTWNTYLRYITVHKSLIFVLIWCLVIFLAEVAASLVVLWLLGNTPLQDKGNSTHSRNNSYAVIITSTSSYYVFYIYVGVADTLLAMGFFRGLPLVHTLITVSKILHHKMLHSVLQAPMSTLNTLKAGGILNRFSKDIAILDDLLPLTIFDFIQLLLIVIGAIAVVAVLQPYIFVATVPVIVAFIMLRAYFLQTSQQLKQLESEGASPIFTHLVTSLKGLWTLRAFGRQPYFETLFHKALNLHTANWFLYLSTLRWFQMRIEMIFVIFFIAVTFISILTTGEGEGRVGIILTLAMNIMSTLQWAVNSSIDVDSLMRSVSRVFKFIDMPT
Chain of 2PT-NBD1-RE (2PT-NBD1 with residues 387-678, containing the regulatory extension) (P13569 other isoform, or with tags, fused parts or gaps limits assumed): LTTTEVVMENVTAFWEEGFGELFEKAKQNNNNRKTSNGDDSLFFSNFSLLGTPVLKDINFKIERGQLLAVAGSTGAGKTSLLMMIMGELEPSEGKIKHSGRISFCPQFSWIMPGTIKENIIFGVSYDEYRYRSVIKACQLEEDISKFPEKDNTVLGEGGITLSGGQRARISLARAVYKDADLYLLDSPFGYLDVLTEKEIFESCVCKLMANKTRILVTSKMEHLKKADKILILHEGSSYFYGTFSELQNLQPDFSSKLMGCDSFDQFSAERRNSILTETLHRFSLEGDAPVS

| ΔG [1] [kcal/mol] | ΔH [1] [kcal/mol] | Kd [2] [nM] | EC50 (read off the curve) [3] [nM] | pEC50 [4] | EC50 (read off the curve) [8] [nM] | EC50 (read off the curve) [9] [nM] | EC50 (read off the curve) [10] [nM] | Binder | binding result [5] | thermostabilization (nanoDSF, Tm) [6] [°C] | Tm of stab-CFTR in complex with the nanobody (nanoDSF, first derivative of 350 nm fluorescence); 'stab-CFTR (51.4°C)', 'T2a (66.6°C)' alone [7] [°C] |
| --- | --- | --- | --- | --- | --- | --- | --- | --- | --- | --- | --- |
| -9.94 | -15.5 | 39 | ~10 | 7.9 |  |  |  | Nanobody T8 (VHH, not shown: small tags and cut ends, Llama nanobody; also called Nb T8; T8 Nb) VHH: QVQLQESGGGLVQPGGSLRLSCAASGSTSSINAMGWYRQAPGKQREPVAISSSGGDTRYAEPVKGRFTISRDNAQNKVYLQMNSLKPEDTAVYYCWLNWGRTSVNSWGQGTQVTVSS | no binding (tested: log [T8] about -5.9 M) |  |  |
| -9.7 | -13.8 | 54 |  | 7.9 | ~7 | ~10 | ~10 | Nanobody T2a (VHH, not shown: small tags and cut ends, Llama nanobody; also called Nb T2a; T2a Nb) VHH: QVQLQESGGGLVQAGGSLRLSCAASGSIFRIDAMGWYRQAPGKQRELVAHSTSGGSTDYADSVKGRFTISRDNAKNTVYLQMNSLKPEDTAVYYCNADVRTRWYASNNYWGQGTQVTVSS |  | 8 | 59.7 |
